In data set [1] the test system is MS2 coat protein. As to the kind of experiment: apparent KD of MS2 coat protein, switch OFF state (with FMN for OFF switches, without FMN for ON switches); designed switch direction (-1 OFF switch, 1 ON switch): 1; higher = weaker reporter binding. The note with it: FMN input: 0 or 200 uM; Eterna round: R93 (includes R88 designs). Summed up:
(§1)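 In 100 mM Tris-HCl pH 7.5 with 80 mM KCl and 4 mM MgCl2, and without or with constant ligand, SNAP-549-labelled MS2 coat protein was titrated in twofold steps from 0.7 or 1.5 nM to 3 µM. Per-step times went from 0.8–1.5 h down to 10–20 min. The RNA switches were transcribed on-chip from Illumina sequencing clusters, and apparent KD is the per-design median of normalised cluster binding-curve fits.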

Data set [2] concerns MS2 coat protein. As to the kind of experiment: apparent KD of MS2 coat protein, switch ON state; designed switch direction (-1 OFF switch, 1 ON switch): 1; higher = weaker reporter binding. The note with it: FMN input: 0 or 200 uM; Eterna round: R93 (includes R88 designs). The method, boiled down:
as §1

“AAGAAACAUGAGGAUCACCCAUGUGAGAUAAACACAGGAUAUGCGAAAAGAAAUAAAUAAGCAGAAGGGUGAAGAA [Mat - Same State 1 - Tesla mod - 70]”: the “apparent KD of MS2 coat protein” value in the data set with MS2 coat protein [1] is 62.6 nM; in the data set with MS2 coat protein [2] it was 26.4 nM.

Regarding “AAGAAACAUGAGGAUCACCCAUGUGAUAAUAUGGGAGGAUAUACAAAGACGAAAGACGAAGUAGAAGGCCUAAGAA [Garnet 47]”, the “apparent KD of MS2 coat protein” value in the data set with MS2 coat protein [1] stood at 114 nM; with MS2 coat protein [2] it was 56.3 nM.

On to “AAUAAAAAUAGUCAGGAUAUGAGAAAUAAGACAUGAGGAUCACCCAUGUAAUAAGUAAAAGUAAAUUAGAAGGGACAGGGUGAAA [JR_SS002_Sub019]”, for which the “apparent KD of MS2 coat protein” value in the data set with MS2 coat protein [1] is 167 nM; in the data set on MS2 coat protein [2] it was 200 nM.

With “AAUAAACAUGAGGAUCACCCAUGUGGUGGCCCAUGAGGAUAUCCAUGUACAUUGUACACAGGAGAAGGCAUAGCCA [Tioredes]”, the “apparent KD of MS2 coat protein” value was determined as 27 nM with MS2 coat protein [1] and 119 nM in the data set with MS2 coat protein [2].

With “AAUAAUUAUACGAAGGAUAUCGGUAAUUAGACAUGAGGAUCACCCAUGUAAUAUGGUUAAAUAUUCGAGAAGGUCGAGGGUGAAA [JR_SS002_Sub504]”, the figures for the “apparent KD of MS2 coat protein” value in the data set on MS2 coat protein [1] and in the data set with MS2 coat protein [2] were 29.4 nM and 336 nM, respectively.

As to “AAUAAUUAUACGAAGGAUAUCGGUAAUUAGACAUGAGGAUCACCCAUGUUAUAUGGUUAAAUAUUCGAGAAGGUCGAGGGUGAAA [JR_SS002_Sub505]”, the “apparent KD of MS2 coat protein” value in the data set on MS2 coat protein [1] came out at 32.7 nM; with MS2 coat protein [2], 36.1 nM.

With “AAUAUACAUGAGGAUCACCCAUGUUUUGGUGGGUCAGGAUAUAAAAACAAUUACAUAAAGUUAGAAGGGACAAAUA [JR_SS001_Sub004]”, the figures for the “apparent KD of MS2 coat protein” value in the data set on MS2 coat protein [1] and with MS2 coat protein [2] were 121 nM and 111 nM, respectively.

For “AAUCCAAAUAGUUAGGAUAUGGGAAUUAAGACAUGAGGAUCACCCAUGUCAUUAAAACAAGUUAACCAGAAGGGACAGGGUGAAA [JR_SS002_Sub208]”, the “apparent KD of MS2 coat protein” value was determined as 26.6 nM in the data set with MS2 coat protein [1] and 14.7 nM with MS2 coat protein [2].

For the sequence “AAUCCAACUAGUCAGGAUAUCAGGCGUAAGACAUGAGGAUCACCCAUGUCCUUAGUACAAGUAACUGAGAAGGGACAGGGCGACC [JR_SS002_Sub410]”, the “apparent KD of MS2 coat protein” value in the data set with MS2 coat protein [1] turned out to be 39.5 nM; in the data set with MS2 coat protein [2], 74.9 nM.

Turning to “AAUGAACAUGAGGAUCACCCAUGUUCUAAUAGUUGAGGAUAUGUGGGUGAAAAUAGCACGGCAGAAGGCGAGUGUA [SameState1 Malc#19]”, the “apparent KD of MS2 coat protein” value is 80.7 nM in the data set on MS2 coat protein [1] and 101 nM with MS2 coat protein [2].

Regarding “ACAAAACAUGAGGAUCACCCAUGUAUAAAUAUAACAGGAUAUGGGACUGCCGAUUAGGCACCAGAAGGGUUUUCAC [Atearve]”, the “apparent KD of MS2 coat protein” value in the data set with MS2 coat protein [1] is 27.3 nM; in the data set on MS2 coat protein [2], 20.8 nM.

In the case of “ACAAAACAUGAGGAUCACCCAUGUCGACUAAAUCAAGGAUAUGGGAAUGCGAAAGCAAAGCCAGAAGGUGAGGUCC [Xeorarbiar]”, the “apparent KD of MS2 coat protein” value in the data set with MS2 coat protein [1] is 185 nM; with MS2 coat protein [2], 294 nM.

As to “ACAUGCUGCCGGCAGGAUAUCGCUUGGCGGACAUGAGGAUCACCCAUGUGAGAAAGUCGCGCGCGCGAGAAGGGCCAUGGUAUCAG [SameState2_Neo]”, the results for the “apparent KD of MS2 coat protein” value in the data set with MS2 coat protein [1] and in the data set with MS2 coat protein [2] were 61.1 nM and 89.3 nM, respectively.

On to “ACGGUCAAGUGUGAGGAUAUCCAGGCUCCCACAUGAGGAUCACCCAUGUCUUAAAGGGCGUAAAGGGAGAAGGUACGAACGCCAC [Vesolees]”, for which the “apparent KD of MS2 coat protein” value in the data set on MS2 coat protein [1] is 45.3 nM; in the data set on MS2 coat protein [2], 33.2 nM.

On to “AGAAAACAUGAGGAUCACCCAUGUAGAAAUAUGGGAGGAUAUACAAAGACGAAAGUCAAGGUAGAAGGCCUAAAGA [Mat - Same State 1 - Meechl mod - D124]”, for which the results for the “apparent KD of MS2 coat protein” value with MS2 coat protein [1] and with MS2 coat protein [2] were 99.9 nM and 20 nM, respectively.

As to “AGAAAACAUGAGGAUCACCCAUGUAGGAAUAUGGGAGGAUAUACAAAGACGAAAGUCAGAGUAGAAGGCCUAAGAA [salish99-SS1-087]”, the “apparent KD of MS2 coat protein” value worked out at 81.8 nM in the data set with MS2 coat protein [1] and 24.1 nM with MS2 coat protein [2].

As for “AGAAAACAUGAGGAUCACCCAUGUGACAAUAUGGGAGGAUAUACAAAGACGAAAGUCGAAGUAGAAGGCCUAAAGA [Garnet 52]”, the “apparent KD of MS2 coat protein” value with MS2 coat protein [1] is 69.7 nM; in the data set with MS2 coat protein [2], 26.1 nM.

For the sequence “AGAAAUAAAACACAGGAUAUCCAAAAGAAAACAUGAGGAUCACCCAUGUAAAAGAAAAUAAAAUGGGAGAAGGGUGAAAAUAAAG [Breaking Jandersonlee's winner (80%)]”, the “apparent KD of MS2 coat protein” value amounted to 52.6 nM with MS2 coat protein [1] and 38 nM with MS2 coat protein [2].

As for “AGAAAUAAAACACAGGAUAUCCAAAAGAAAACAUGAGGAUCACCCAUGUAAAGAAAAUAAAAAUGGGAGAAGGGUGAAAAUAAGA [Mat - Same State 2 - JL mod - D15]”, the “apparent KD of MS2 coat protein” value was determined as 31.5 nM in the data set on MS2 coat protein [1] and 19.9 nM in the data set on MS2 coat protein [2].

With “AGAAAUAAAAGAGAGGAUAUCCAAAAGAAAACAUGAGGAUCACCCAUGUAAAAGAAAAUAAAAUGGGAGAAGGCUCAAAAUAAAGA [Helter Skelter 2]”, the “apparent KD of MS2 coat protein” value in the data set with MS2 coat protein [1] turned out to be 69.7 nM; in the data set on MS2 coat protein [2], 21.6 nM.

On to “AGAAAUAAAAGAGAGGAUAUCCAAAAUAAAACAUGAGGAUCACCCAUGUGUACGAAAGUACAAUGGGAGAAGGCUCAAAAUAAAG [80% More Helter Skelter 2 + Hairpin]”, for which the “apparent KD of MS2 coat protein” value in the data set with MS2 coat protein [1] came out at 6.54 nM; in the data set on MS2 coat protein [2], 1280 nM.

With “AGAAAUAAAAGGCAGGAUAUCCAAAAGAAAACAUGAGGAUCACCCAUGUAAAAGAAAAUAAAGUGGGAGAAGGGCCAAAAUAAAG [My design (73%) + Space bases]”, the “apparent KD of MS2 coat protein” value came to 36.5 nM in the data set with MS2 coat protein [1] and 11.7 nM in the data set with MS2 coat protein [2].

Consider “AGAAAUAAAAUGGAGGAUAUCCAAAAGAAAACAUGAGGAUCACCCAUGUAAAAGAAAAUAAAAUGGGAGAAGGCCACAAAUAAAG”, for which the “apparent KD of MS2 coat protein” value in the data set with MS2 coat protein [1] turned out to be 31.4 nM; with MS2 coat protein [2], 26.8 nM.

With “AGAAAUAAAUGAGAGGAUAUCCUAAAGAAAACAUGAGGAUCACCCAUGUAAAAGAAAAUAAAAUGGGAGAAGGCUCAUAAUAAAG [Starry Same State 2 (jandersonlee round 1 mod)]”, the “apparent KD of MS2 coat protein” value with MS2 coat protein [1] stood at 35.5 nM; with MS2 coat protein [2] it was 20.8 nM.

With “AGCACGGGAUUGGAGGAUAUGUUGUUUGCAACAUGAGGAUCACCCAUGUCUGAGGCUGAAAAGCAGCAGAAGGCCGAUACAACCA [SS2-1.2]”, the “apparent KD of MS2 coat protein” value with MS2 coat protein [1] is 367 nM; with MS2 coat protein [2] it was 43.8 nM.

Turning to “AGCACGUGAUUGGAGGAUAUGCAGUAAGCAACAUGAGGAUCACCCAUGUCUGACCCUGAAAACCAGCAGAAGGCCGAUACAACCA [SS2-1.7]”, the “apparent KD of MS2 coat protein” value with MS2 coat protein [1] came to 13 nM; in the data set with MS2 coat protein [2], 10.2 nM.

As for “AGCACGUGAUUGGAGGAUAUGUUGUAAGCAACAUGAGGAUCACCCAUGUCUGAGGCUGAAAAGCAGCAGAAGGCCGAUACAACCA [SS2-1.3]”, the “apparent KD of MS2 coat protein” value with MS2 coat protein [1] worked out at 110 nM; in the data set with MS2 coat protein [2] it was 37.2 nM.

For the sequence “AGGAAACAUGAGGAUCACCCAUGUAAAAAAAUGGGAGGAUAUACUAGAAGAAACAAAAUAGUAGAAGGCCUAAAAA [75%, Ex sub1, 27]”, the entries for the “apparent KD of MS2 coat protein” value with MS2 coat protein [1] and in the data set on MS2 coat protein [2] were 74.9 nM and 18.9 nM, respectively.

On to “AGGAAACAUGAGGAUCACCCAUGUAAAAAUAUAGGAGGAUAUGCGAAAAGAAACAAAGAAGCAGAAGGCUUAAAAA [75%, Ex sub1, 22]”, for which the “apparent KD of MS2 coat protein” value with MS2 coat protein [1] is 20.8 nM; with MS2 coat protein [2] it was 13.1 nM.

Regarding “AGGAAACAUGAGGAUCACCCAUGUAAAAAUAUGGAAGGAUAUGGAAACACGAAAGUGAAACCAGAAGGUUCAAAAA [77%, Mat - Mod of Eli, 22]”, the “apparent KD of MS2 coat protein” value in the data set on MS2 coat protein [1] amounted to 24.7 nM; with MS2 coat protein [2] it was 18.5 nM.

“AGGAAACAUGAGGAUCACCCAUGUAAGAUAUAUACAGGAUAUGCGAAAAGAAACAAAGAAGCAGAAGGGUAAAAAA [75%, Ex sub1, 13]”: the “apparent KD of MS2 coat protein” value stood at 25.5 nM with MS2 coat protein [1] and 18 nM with MS2 coat protein [2].

Take “AGGAAACAUGAGGAUCACCCAUGUAUAAAAAUGGAAGGAUAUACUAAGACGAAAGUCAUAGUAGAAGGUUCAAAAA [76%, Meechl, 9]”: the “apparent KD of MS2 coat protein” value in the data set on MS2 coat protein [1] is 21.1 nM; with MS2 coat protein [2], 13.1 nM.

Take “AGGAGACAUGAGGAUCACCCAUGUGAGAAGAGGCGAGGAUAUCGAAAAAAAAAAAGAAAACGAGAAGGCGCGAGAA [salish99-SS1-014]”: the “apparent KD of MS2 coat protein” value stood at 59.9 nM in the data set with MS2 coat protein [1] and 244 nM in the data set with MS2 coat protein [2].

For the sequence “AGGAGACAUGAGGAUCACCCAUGUGAGAAGAGGCGAGGAUAUCGAAAGAAAGAAAGAAAACGAGAAGGCGCGAGAA [salish99-SS1-016]”, the “apparent KD of MS2 coat protein” value in the data set with MS2 coat protein [1] was found to be 42.8 nM; with MS2 coat protein [2], 28 nM.

“AGGAGACAUGAGGAUCACCCAUGUGAGAAGAGGCGAGGAUAUCGAAAGAAAGAAGAGAAACGAGAAGGCGCGAGAC [salish99-SS1-029]”: the “apparent KD of MS2 coat protein” value with MS2 coat protein [1] was determined as 33.6 nM; with MS2 coat protein [2], 15.4 nM.

Regarding “AUAAAACAUGAGGAUCACCCAUGUAGAAAUAUGGGAGGAUAUACUAGAUCGAAAGAUCUAGUAGAAGGCCUUUAUG [JL Mod of Eli 5]”, the “apparent KD of MS2 coat protein” value with MS2 coat protein [1] is 49.3 nM; in the data set on MS2 coat protein [2], 45.4 nM.

For “AUAAAACAUGAGGAUCACCCAUGUAGACACGAUGGAGGAUAUACUAGAUCGAAAGAUCUAGUAGAAGGCCGACGUA [Mat - Same State 1 - JL mod - D95]”, the “apparent KD of MS2 coat protein” value in the data set with MS2 coat protein [1] is 22.6 nM; with MS2 coat protein [2] it was 18.4 nM.

As to “AUAAAAGAAGCGAAGGAUAUCCAAAAUCCAACAUGAGGAUCACCCAUGUAAAGAAAGAAAAAAUGGGAGAAGGUCGCAAAGAAUA [73%, More Fisker Same State 2, D3, 11]”, the “apparent KD of MS2 coat protein” value stood at 31.3 nM in the data set on MS2 coat protein [1] and 13.5 nM in the data set on MS2 coat protein [2].
